Measured values reported in article PMC5131957, “p53 Specifically Binds Triplex DNA In Vitro and in Cells”.

B1: T.A.T triplex, biotinylated (structured_DNA)
DNA 1: TTTTTTTTTTTTTTTTTTTTTTTTTTTTTTTTTTTTTTTTTTTTTTTTTT
DNA 2: AAAAAAAAAAAAAAAAAAAAAAAAAAAAAAAAAAAAAAAAAAAAAAAAAA
DNA 3: B1 DNA 1
B2: CON, biotinylated (dsDNA)
DNA 1: GACGGTATCGATAAGAGACATGCCTAGACATGCCTCTTGATATCGAATTC
DNA 2: GAATTCGATATCAAGAGGCATGTCTAGGCATGTCTCTTATCGATACCGTC

How the values were obtained:
[1] = target: p53 full length (human, UniProt P04637 1-393); assay: ELISA; DO1 antibody; 2 mM Mg2+; EMSA: 5 mM Tris-HCl pH 8, 1 mM MgCl2, 0.01% Triton X-100, 50 mM KCl, on ice or 25 C, 30 min, pBSK/SmaI competitor 5-50 ng; ELISA: 1x PBS, 2 mM MgCl2, temperature not stated; conditions: protein: recombinant, chain copies: 4
[2] = target: p53T (last 30 aa, CTDBD) (human, UniProt P04637 363-393); assay: ELISA; 2 mM Mg2+; EMSA: 5 mM Tris-HCl pH 8, 1 mM MgCl2, 0.01% Triton X-100, 50 mM KCl, on ice or 25 C, 30 min, pBSK/SmaI competitor 5-50 ng; ELISA: 1x PBS, 2 mM MgCl2, temperature not stated; conditions: protein: recombinant; tags: GST (with or without); label: 3' biotin on (dA)50; intermolecular triplex, 2 x (dT)50 + 1 x (dA)50
[3] = target: p53CT (C-terminal segment: tetramerization domain + CTDBD) (human, UniProt P04637 320-393); assay: as above; conditions: protein: recombinant; tags: GST (with or without); chain copies: 4; label: 3' biotin on (dA)50; intermolecular triplex, 2 x (dT)50 + 1 x (dA)50
Sequence of p53CT (C-terminal segment: tetramerization domain + CTDBD) (P04637 320-393): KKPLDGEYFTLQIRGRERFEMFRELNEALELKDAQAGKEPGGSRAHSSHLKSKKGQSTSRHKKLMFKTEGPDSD

Sequence of p53 full length (P04637 whole entry): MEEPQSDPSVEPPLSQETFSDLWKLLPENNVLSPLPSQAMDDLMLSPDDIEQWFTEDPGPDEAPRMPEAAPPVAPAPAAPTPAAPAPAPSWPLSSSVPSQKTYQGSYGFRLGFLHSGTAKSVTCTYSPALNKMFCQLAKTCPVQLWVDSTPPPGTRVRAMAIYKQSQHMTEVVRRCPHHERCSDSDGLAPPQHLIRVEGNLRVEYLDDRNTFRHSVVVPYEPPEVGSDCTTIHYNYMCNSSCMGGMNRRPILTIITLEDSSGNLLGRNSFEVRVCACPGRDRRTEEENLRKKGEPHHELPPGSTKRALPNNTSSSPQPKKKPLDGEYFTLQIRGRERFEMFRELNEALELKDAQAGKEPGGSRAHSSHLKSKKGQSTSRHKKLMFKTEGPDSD
Sequence of p53T (last 30 aa, CTDBD) (P04637 363-393): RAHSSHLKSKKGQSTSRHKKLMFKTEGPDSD

Row | Binder | Kd ([1]; label: 3' biotin on (dA)50, intermolecular triplex, 2 x (dT)50 + 1 x (dA)50) [nM] | Kd [2] [nM] | Kd [3] [nM] | Kd ([1]; label: 3' biotin on strand 1, blunt) [nM]
1 | B1 | 0.75 ± 0.07 | 10.4 ± 0.84 | 1.88 ± 0.3 | –
2 | B2 | – | – | – | 0.58 ± 0.05
